Data: the DeepSol protein solubility set

assay: soluble on expression in E. coli; label from the status in PepcDB or PDB records

Soluble on expression in E. coli, not soluble:
MGSDKIHHHHHHMRKLGWKELDIILVTGDAYVDHPSFGVAFIGHYLVSHGFKVGIIAQPDWRTEKDITRLGRPRLFFGVTAGNVDSMVANYTASKKKRKTDDYTPGGIGGKRPDRATIVYTNLIKRFFPEVPVVLGGLEASLRRFAHYDWWSDRVRKSVLVDSKADLLVYGMGEKAVLGIAQILSRTGDIEKCKSIRGVVWWASQKPEEGIELPSYDEISENPEKYAEALKLQTWYTDPYKNIPIYQRQDTRYVVQNPPQPPLSQEELDRLYLLPFEREVHPFYAKMGKVKAIETVKFSITAVRGCFGNCSFCALTQHQTTHVSYRSKDSILEEVRILTKKKDFKGTITDVGGPTANLYGSGCSIRETKGQCQKFCLYPIVCKVVRPNHDEFISLLESIRQIPGVRNVFVSSGIRHDFVFAEKDPDVFIRELVKYTPGQLKLAPEHAHPKVLSLMRKPPVELFLEFKKRFETLAKKMGKRKYVIGYFIVGHPGEGWRENNYLRDFILKHLGYFPQQIQIFTPTPGTVSTAMYYSGVDPFTGEKVHVERSLKVRNKMKENVLFKKKGREKR
MGSDKIHHHHHHMRKLLVIGLDSVPPLLIEKFRDLIPNLQSLLNVKGKLLSGHPPITVPMWGVMLAGRSAGELGVYGFRHRRPGDVGTSYVVTSRSIAEGWVWDDLGLRLGLRSLVIGVPPGYPARRVRGWFVSCFLTPGVDGAFAWPPGLKREILKASGGDYVFDVKYRVEDKESVRKSLWRLAKTQFKVVKYLLSSKPWDFAMYMHIGTDRVHHAFWKYWDPEHPRYPGEGNPYENVLPEYYSLVDKHIGQLLESLPGDTDVIVVSDHGAKAMKGAFAINQWLEEEGYLSLKEEPKRPGADLEASMIDWDRTMAWAWGGYYSRVYINLKGREPRGIVGREEYWSVVEQLKRDIEKIRGPNGERWENKAYHPSELYPEVRGDAPDLMVYLDNLSWRPAGTIGWPSTYLEENDRGPDDAVHDWHGIIGGNADVLKEAVKDSTVPIQRVKEIILAHYGLESHMKDRGRGAV
MGSDKIHHHHHHMRKPRVFIGSSVESLPIADAIAENLEFDAEVTIWRNGTFNLSSNALDDLISKAKSVDFSIFIFSPDDLTIMKSREKYAVRDNVVFELGLFIGAIGKNRCFIVKPRDVDLHFPSDLLGITPTDFDANRSDEDLASSLNYSATQIKRAFKAQGLLELDSVQEKPRIDVNAQLATLTDTDMIALSVLLESVNSDVDGCASWDLYNRFNNYDFSSAQVNLAVIKLTRSGMIEKLNTSDFNGNEYFSYKLTEYGIDVCLSNQNRIETLIAPKKRQSGRDVPQQPPVRS
MGSDKIHHHHHHMRNTDNGVIGSDQTAVMTRLALDELIDQLLHSNALSLKLTANPLVADRAWHLTENTCIRAFSADDPQAKKRAHHALFILYQSWLADPLSPAAANQFHPLLSGIRNYIESEWLRAESKRFHHQRPMLNAGNIVDELRALCQQHPASHHPLFDFLASEASAAQIDYFFKSDSALNLLFFDLVAMGLVGSLPETRAEIAQNLWDEIGQGSTEITHVNLYKDLLKRRNIALPDNHFAHLYEWQGLAGYNAFMLGGVNRQHYYKSLGVMAMTELLDPPQYEKLVAGCRRIGLSERDVHYYAEHITVDIGHADGWLNNVIVPIGKKHPAAMEEVFFGAALRLQTCNDYYDGLLAALQSLGGSLSSHSVPPSE
MGSDKIHHHHHHMRPVDKGKDLGSFKPYNKACAPLQDRLGEYCSYCERWIAAAIEVEHILPKKANPSQKYRWSNFLLACKNCNTGKGSDQIIVTDYLWPDLDNTFLAFCYDDEGRAYPNPRLPPAILEKAKATWTLTNLNWHPDTTFTGMVAPSEKDHRHSHRKQAWIYASDKRNQLLQYDTPDRRVSVAKDALQRGMFSVWMTVFNTTSELDREIRRLLIENFVGTATNCFDRLGNAHRSSTGQI
MGSDKIHHHHHHMRPVYIATAYLGPIQQYCKMLQYPEVRIETAENYVKQTYRNRCVIAAANGPLSLSIPIVKPDTLKCQTKDIRISDHGNWRHLHWNALVSAYNMSPFFEYYADDLAPFYEKKYEFLLDFNEELRRLVCDLLDMQPAVVYTEHYEPEVANDFRETIRPKHEGEDPAFRPEPYYQVFREKFGFLPNLSIADLLFNMGPEGLVTLRASITGSL
MGSDKIHHHHHHMRQPDHDDERAQCFAGFAPESIAHYLEHVWLGTPNPVEEPALADDRTASLAVIPVSELAGRRTELLDAMVTLYGGERETHARALLSQWTKYYFGFTATAGFVAAALLRRPLAMSPDNTHIVLRDGLPIAAYFARDALQPVECDPARRYAPLVEHLNAVIEMLCTMTRIAPRVLWSNAGNLLDYLFEQCAPQFDLSEDIAWLFGPLAANGEANPLRLPVRQAKPRAASLPNPFSARRVCCVRYEIPGETQLCGRCPLLLTMSDAEIALQAASQ
MGSDKIHHHHHHMRRLRKALAAGSFLFRGTFVQSDPIPARARRPIMMLEHIQARTHHARRGALRNSFTYGVDYVLTDLGPAGPLLISRNRFNLWSLWDHRHGGARDNGHGVHWFRSLLQERGLATENAQLLLLTQPSFLWFHFNPVSFWIALVDGTPRAFVAEVNSTFGQRHCYFCARDGFAPIRKSDTLIAEKLMHVSPFQRIAGHYAFNFGMTDTQIDIRISFENGDHGVLATLSGERRPATSASLAWAAIRRPLGAARVLALIHWQAAILYLKRAPFLKKQHPPEHLVSDGYDLRGTKE
MGSDKIHHHHHHMRRPRRPQDFLEYEKVLKFKESEKQIEETETKGDVRVALVVPSGYEVAASGLAFHYVQKLLNSHPRIRCERFFYDETFKKFYSLETQTPIDEFPIWLFSVSFENDFSNLLDILKKKDVPLSWKEREDYHPLIIIGGAVTYLNEEFLIPVADAVYYGELEKYLDLFTEALTGETKQEILSSLSRIPSVEVPSLKEHSEIATGVDLNDFLPHSSVVPSRGVFPGKLLVEVGRGCIRRCAFCIFGKNLKPARFVKPERFEELVKNTPYSEYGLISATITDYPWLEDLLDTVEKYQLKISVSSLRLDRLSERLLRTLKDSGQRSFTIAPEAGSQRIRDILKKDITDEQIENALKLARKLDFDRVKMYFIYGLEEETEEDLEAFKKLGDLAVRLGYREVHMSFNPLIPKPGTEFERRKMEPVDVLRKKEKILKNLLKGFRVDFESIRESVVQYTIAHAGKEEVESWLKFFEKSDKKLLGKLIYEEGRKRLC
MGSDKIHHHHHHMRRTALHSSTVGIRMRRALLRGLALSLTLGGAALGQSVGDSIFPSLGQRGLDVQHYDLHLTVPRPGEPHLSGDVTLTVGAREPLSRIVLDLLGPRVSAAQWNGQRVRWVQTAQKVEVTLPRPLRPGETGRLRLIYAGTPELSGDPGLPIRPGWQNEAGLSYSLSEPHGTRGFLPCNDHPSDPATFTVRVTVPASASAAASGLFTTQTERNGLKTLTFTQRVPVPTYALGLIVGPLERRTAPDVQLGTQTVHRRDIYAAGLPAGTTVPEGETARMLRVLSDWFGPYPDEVYGVALLPVRQLALETAGLTTMPATSNRERVRLHELAHQWFGDQVTLADWADTWLSEGFATYAELLWAESQGEDGQAMAADWYARLSVLPSRPLRATREEEIFDASAYFRGALALHALRLKVGDAAFGQFLHSYVKTFTGRPVSTTALLTLVKTQLGAEAEQTLRVWVEGRTLPPLPEPVGAPV
MGSDKIHHHHHHMRSHGGDVYKVSPNYDRITDMSSNVNPFLDLGKYSLYPEISYTDIEEKLRVYTKSTNMGIVIGPGLTHLIYKYFEFYQVKKPIIAMPNFSEYKGIAEDRHLRFSAIPSYIIEKDPLILKNFDHDALFITSPSNPFGELFPESTLETVFEIEEKRGRRVFLDGAFMDFVPNYAESIVQSSRSYFNVTIGRSLTKILAIPSLRAGYLIMERHEADLFRKAMEPWSICQPAIDFIRSIDINEVAKNSVALVNGEREYLISELKARGIKVIGNPSANYIVISMPRTDEFYNFMLSKGILVRLLDDYDYVGRCLVRLAIKTRSQNNAFLNALDNFMSSSE
MGSDKIHHHHHHMRTVLYDEHAKLNAKFTEFNGWDMPLYYRSIIEEHMAVRKHVGIFDVSHMGDVTVSGKDASAFLDHMFPTKVSNLKNGECVYTAFLNDSGLMIDDTIVYRMGEDSYFFVPNAGTTEKIYRWVSDHSAGYSVKIENVSNRISSIALQGPESEEVLNELGFSYPGYFKFQYVSGKYMNAITGKDQIIISGTGYTGEKGVEFIIPNEHAVELWKKLLEAINKRNGLPAGLGARDTLRMEKGMLLSGHDFNEDRDPYEASVSFIVNNDEDFVGKKNLEIRRRSDHEIFRGFVLSDGIPRNGNPIKAGGKRVGTVTSGTISPVLNKGIALGYIDKAYSKENTEVMIEIRSVDHKAVVTKPRIVK
MGSDKIHHHHHHMRVAIDAFNIALAHGTGVATYGRTLASAAAGLGHEVNVLFGAGAGYSKVPLLNEIALAEVGAVSARGPSRAALARGIARGLAGARPAHDLPISGQVILPPGLRLDARRHSNVPNLFKAADLGFRAAGAFSKVKVPGTDLAHWTYPLPLKMVGARNVYTLHDLVPLRLPYTTADVKHAYYRLCRRIARDADHILTVSECSRRDIVRLLGVDEDRVTNLYQTSDIADAIAGVSEDFVARYVEGLLGVGMREYFLFFGAIEPKKNVARLIEAFLASAVQSPLVIVGGAGWGGEQDVKLLKSLAGMDTRKRIVWLGYLPRQMLAMLIAGARATVFPSLYEGFGLPVLESMELGTPVITSNVSSLPEVAQDAGLLVDPYDVRSLATAFLQLDADPGLRSQMSMRGREVAAGFSAEAYRGRLADFYAKF
MGSDKIHHHHHHMRVELNGILPVCPCSGRGYLDNARLFRQIEPIVRKQSPFMNSRSLLCLLAVSLCASPVWADTVWMKNGDRLSGKIKVFDGGKLLLETPYGGSIALDWKQVQTLESDQEMLVKQDAYSGEKAKSLKAAEAGKVTLANGDSPKTVALASIEQIMKPKPLVEDFVWKGNVDVALDYKRAENDTDDYDVGFKTTARHGRWRHNAEGEYNRETKDDVTTTNNWSAEYALDRFITDKWFWQGRAEYKRDHIEDLARQRTVGTGPGYQFWDDELGAFSLGSLINRTDFEYRDGGKDNFYSAAVKWDYTRYLIGKNVQLFTNGEFAKPLGGVADYSLDAEVGLRYKVTEWASLNLKAEKDIITGTRESDLDKTRYTAGFGVTW
MGSDKIHHHHHHMRVFNSSPPSEAQTRTRILQAAQRLFASQGFDGTTTRDLAQAAGVAEGTLFRHFPNKKAILVEVATSGWVEILTDLLTELSEMGSYKAVAQVMRRRMWNFQKNADLMRVCFMEVQFHPDLRDRIQLEVITKMTDVGEAFFQTAMDKGIYRKMDAKLVAKVFLGMFAIAGFSNNTLIEPDASPQQMQEMAEGLADIFLNGVLAKD
MGSDKIHHHHHHMRVLVVGLGNMGQSHALAHHAADGVEIIGLVNRSSRDLPGALQGYPMIQTVEEGLALSPDLVVIATYSDTHADLACQAMRAGAHVFVEKPLATTVADAKGVVETARETGQKLVVGYILRHHPSWMRLIEEARALGGPYVFRMNLNQQSTGAEWATHKALMQTTSPIVDCGVHYVDVWCQITDARPVAVHGMGLRLSDEIAPEMYNYGQFQVFFDDGSVGWYEAGWGPMMSEVAFFVKDVISPNGAVSITEADKAGSADIDGHTKVGGVLVHRPGDDQLIEFEGEPGHQELCDAEQAFMRRAIAEDLDLSRHMEDAVRSLAICLAADESIRTGQRVTL
